# T1: HLA-DR on Ba/F3 cells (human, UniProt P01903 26-216; P79483 30-227, limits assumed)
# T1 construct: whole, on cells; also called Ba/F3-HLA-DR
# T1 MHC II alpha: not shown
# T1 MHC II beta: not shown
# T2: HLA-DQ2.5 on Ba/F3 cells (not in the form of a complex with a linked peptide) (human, UniProt P01909 24-254; P01920 33-261)
# T2 construct: also called Ba/F3-HLA-DQ2.5; No peptide
# T2 MHC II alpha: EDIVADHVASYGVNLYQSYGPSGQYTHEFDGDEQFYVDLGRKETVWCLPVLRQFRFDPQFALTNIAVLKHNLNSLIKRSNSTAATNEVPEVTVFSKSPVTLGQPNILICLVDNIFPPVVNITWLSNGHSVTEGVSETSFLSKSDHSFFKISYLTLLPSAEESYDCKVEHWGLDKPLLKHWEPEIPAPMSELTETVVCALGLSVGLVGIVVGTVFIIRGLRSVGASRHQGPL
# T2 MHC II beta: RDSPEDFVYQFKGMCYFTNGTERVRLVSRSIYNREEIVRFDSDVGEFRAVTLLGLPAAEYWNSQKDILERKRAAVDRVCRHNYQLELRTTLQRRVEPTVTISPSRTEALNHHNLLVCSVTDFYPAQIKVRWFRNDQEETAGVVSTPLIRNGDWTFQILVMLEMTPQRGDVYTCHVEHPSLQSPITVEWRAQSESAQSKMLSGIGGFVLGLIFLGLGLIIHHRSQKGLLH
# T3: HLA-DQ2.2 on Ba/F3 cells (human, UniProt P01909 24-254; P01920 33-261)
# T3 construct: also called Ba/F3-HLA-DQ2.2
# T3 MHC II alpha: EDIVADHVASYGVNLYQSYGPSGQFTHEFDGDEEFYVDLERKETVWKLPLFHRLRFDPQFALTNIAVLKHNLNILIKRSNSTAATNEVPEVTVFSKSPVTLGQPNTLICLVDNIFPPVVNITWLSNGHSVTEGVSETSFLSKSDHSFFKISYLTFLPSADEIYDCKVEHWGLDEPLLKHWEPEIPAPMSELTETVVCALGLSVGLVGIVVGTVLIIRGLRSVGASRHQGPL
# T3 MHC II beta: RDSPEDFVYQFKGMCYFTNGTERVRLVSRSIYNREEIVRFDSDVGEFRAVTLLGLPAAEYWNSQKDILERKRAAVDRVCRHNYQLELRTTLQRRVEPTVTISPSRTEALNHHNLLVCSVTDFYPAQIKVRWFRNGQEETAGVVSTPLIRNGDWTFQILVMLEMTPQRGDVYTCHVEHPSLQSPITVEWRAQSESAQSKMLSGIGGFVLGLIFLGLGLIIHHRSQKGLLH
# T4: HLA-DQ8 on Ba/F3 cells (human, UniProt P01909 24-254; P01920 33-261)
# T4 construct: also called Ba/F3-HLA-DQ8
# T4 MHC II alpha: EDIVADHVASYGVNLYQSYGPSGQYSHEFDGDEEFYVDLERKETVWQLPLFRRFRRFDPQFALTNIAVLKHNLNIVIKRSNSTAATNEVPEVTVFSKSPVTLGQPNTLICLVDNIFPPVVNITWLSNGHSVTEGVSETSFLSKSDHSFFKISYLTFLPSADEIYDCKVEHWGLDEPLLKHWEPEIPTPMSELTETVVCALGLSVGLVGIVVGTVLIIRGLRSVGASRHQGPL
# T4 MHC II beta: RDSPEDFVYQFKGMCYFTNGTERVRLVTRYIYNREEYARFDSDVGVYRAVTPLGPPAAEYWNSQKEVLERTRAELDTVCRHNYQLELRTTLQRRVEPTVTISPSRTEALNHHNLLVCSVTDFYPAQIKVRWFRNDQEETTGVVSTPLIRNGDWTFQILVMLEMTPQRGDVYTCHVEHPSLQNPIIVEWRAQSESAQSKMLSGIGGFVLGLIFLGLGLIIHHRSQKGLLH
# T5: HLA-DQ7.3 on Ba/F3 cells (human, UniProt P01909 24-254; P01920 33-261)
# T5 construct: also called Ba/F3-HLA-DQ7.3
# T5 MHC II alpha: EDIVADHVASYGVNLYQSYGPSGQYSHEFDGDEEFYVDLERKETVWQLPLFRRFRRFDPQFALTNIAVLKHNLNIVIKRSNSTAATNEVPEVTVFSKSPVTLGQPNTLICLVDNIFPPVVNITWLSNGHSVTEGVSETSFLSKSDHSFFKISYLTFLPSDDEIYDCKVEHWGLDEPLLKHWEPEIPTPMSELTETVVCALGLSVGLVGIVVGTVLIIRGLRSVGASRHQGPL
# T5 MHC II beta: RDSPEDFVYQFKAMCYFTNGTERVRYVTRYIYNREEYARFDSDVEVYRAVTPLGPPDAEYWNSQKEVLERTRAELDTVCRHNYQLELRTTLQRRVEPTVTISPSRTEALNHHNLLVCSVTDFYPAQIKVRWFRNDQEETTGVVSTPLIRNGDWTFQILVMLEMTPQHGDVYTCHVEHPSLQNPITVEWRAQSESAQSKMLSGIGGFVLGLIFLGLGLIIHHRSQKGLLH
# T6: HLA-DQ2.5 on HLA-DQ2.5 positive PBMC-B cells (human, UniProt P01909 24-254; P01920 33-261)
# T6 construct: also called DQ2.5 + PBMC; HLA-DQ2.5+PBMC B cell
# T6 MHC II alpha: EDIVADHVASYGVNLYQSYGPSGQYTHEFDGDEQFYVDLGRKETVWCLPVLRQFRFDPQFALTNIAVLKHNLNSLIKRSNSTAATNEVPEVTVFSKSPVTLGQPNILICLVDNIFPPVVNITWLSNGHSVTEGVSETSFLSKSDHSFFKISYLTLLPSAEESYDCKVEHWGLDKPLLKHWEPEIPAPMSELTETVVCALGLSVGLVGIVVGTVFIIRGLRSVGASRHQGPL
# T6 MHC II beta: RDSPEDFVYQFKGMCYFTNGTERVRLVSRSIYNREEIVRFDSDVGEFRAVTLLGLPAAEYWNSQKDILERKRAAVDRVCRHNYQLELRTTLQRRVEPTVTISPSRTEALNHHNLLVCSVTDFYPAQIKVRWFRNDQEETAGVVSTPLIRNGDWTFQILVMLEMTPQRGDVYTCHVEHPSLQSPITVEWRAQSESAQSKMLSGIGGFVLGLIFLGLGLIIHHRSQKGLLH
# B1: DQN0089ff (antibody, V domains shown)
# VH: QEQVVEYGGDLVQPEGSLTLTCKASGLDFSSTYYMCWVRQAPGKGLEWIGCIYGGSSDSTYYASWAKGRFTISKTSPTTVTLQMTSLTAADTATHFCATYDYGAVGYDLWGPGTLVTVSS
# VL: EVVVTQTPASVEVAVGGTVTIKCQASQNISPYLSWYQQKPGQPPKLLIYKASTLASGVSSRFKGSGSGTQFTLTISDLECADAATYYCQNNYGVSINYGHTFGGGTKVEIK
# notes: also called DQN0089Hf; DQN0089Lf
# B2: IC17 (antibody, V domains shown)
# VH: QVQLQQSGPQLVRPGASVNISCKASGYSFTSYWMHWVNQRPGQGLEWIGMIDPSYSETRLNQKFKDKATLTVDKSSSTAYMQLSSPTSEDSAVYYCALYGNYFDYWGQGTTLTVSS
# VL: DIQMTQSSSSFSVSLGDRVTITCKASEDIYNRLAWYQQKPGNAPRLLISGATSLETGVPSRFSGSGSGKDYTLSITSLQTEDVATYYCQQYWSTPYTFGGGTKLEVK
# notes: also called IC17H; IC17L
# How the values were obtained:
# [1] = target: T7, HLA-DP on Ba/F3 cells (human, UniProt P20036 29-222; P04440 30-225, limits assumed); assay: FACS, FIG. 6
# T7 construct: whole, on cells; also called Ba/F3-HLA-DP
# T7 sequence (P20036 29-222 limits assumed, chain 1 of 4, other chains not shown): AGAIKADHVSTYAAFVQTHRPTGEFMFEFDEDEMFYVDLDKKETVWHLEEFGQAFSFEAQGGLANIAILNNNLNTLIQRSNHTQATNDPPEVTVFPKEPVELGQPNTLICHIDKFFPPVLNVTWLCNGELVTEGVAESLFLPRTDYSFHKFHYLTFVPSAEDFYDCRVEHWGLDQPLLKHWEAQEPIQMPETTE
# T7 sequence (P04440 30-225 limits assumed, chain 2 of 4, other chains not shown): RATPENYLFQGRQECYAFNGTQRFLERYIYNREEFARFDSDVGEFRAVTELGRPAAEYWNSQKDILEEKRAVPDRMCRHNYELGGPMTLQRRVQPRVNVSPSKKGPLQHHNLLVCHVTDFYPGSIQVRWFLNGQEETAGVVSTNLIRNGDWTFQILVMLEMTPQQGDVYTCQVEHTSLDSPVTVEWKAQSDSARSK
# [2] = target: T1, HLA-DR on Ba/F3 cells; assay: FACS, FIG. 7
# [3] = target: T2, HLA-DQ2.5 on Ba/F3 cells (not in the …); assay: FACS, Ba/F3 cells expressing the target, goat F(ab')2 anti-human IgG-PE (Example 7)
# [4] = target: T3, HLA-DQ2.2 on Ba/F3 cells; assay: FACS, Ba/F3 cells expressing the target, goat F(ab')2 anti-human IgG-PE (Example 9)
# [5] = target: T4, HLA-DQ8 on Ba/F3 cells; assay: FACS, Ba/F3 cells expressing the target, goat F(ab')2 anti-human IgG-PE (Example 10)
# [6] = target: T8, HLA-DQ5.1 on Ba/F3 cells (human); assay: as above
# T8 construct: also called BaF3-HLA-DQ5.1
# [7] = target: T1, HLA-DR on Ba/F3 cells; assay: as above
# [8] = target: T7, HLA-DP on Ba/F3 cells; assay: as above
# [9] = target: T9, HLA-DQ6.3 on Ba/F3 cells (human, UniProt P01920 33-261); assay: FACS, Ba/F3 cells expressing the target, goat F(ab')2 anti-human IgG-PE (Example 4.2)
# T9 construct: also called BaF3-HLA-DQ6.3
# [10] = target: T5, HLA-DQ7.3 on Ba/F3 cells; assay: as above
# [11] = target: T6, HLA-DQ2.5 on HLA-DQ2.5 positive PBMC-B …; assay: FACS, HLA-DQ2.5 positive PBMC with FcR blocking reagent, anti-CD19 stain, Alexa Fluor 555 anti-human IgG Fc antibody (Example 8)
Binder,binding result [1],binding result [2],binding result [3],binding result [4],binding result [5],binding result [6],binding result [7],binding result [8],binding result [9],binding result [10],binding result [11]
B1,binds,binds,–,–,–,–,–,–,–,–,–
B2,–,–,no binding (tested: 10 microgram/mL),no binding (tested: 10 microgram/mL),no binding (tested: 20 microgram/mL),no binding (tested: 20 microgram/mL),no binding (tested: 20 microgram/mL),no binding (tested: 20 microgram/mL),no binding (tested: 20 microgram/mL),no binding (tested: 20 microgram/mL),no binding (tested: 10 microgram/mL)

# Source: patent US20230118024A1 (Chugai, published 2023)
